In patent US20070123452A1, “Method of selecting novel immunosuppressant” (Astellas Pharma Inc., priority 2002, published 2007):
Where a chain is given by its changes, count along the chain named. Names and notes keep the numbering of the source.

B1: HDAC4 dominant negative variant (H863L) with C-terminal Flag (expressed from pEAK-HDAC4 (H863L)) (protein)
chain: MSSQSHPDGLSGRDQPVELLNPARVNHMPSTVDVATALPLQVAPSAVPMDLRLDHQFSLPVAEPALREQQLQQELLALKQKQQIQRQILIAEFQRQHEQLSRQHEAQLHEHIKQQQEMLAMKHQQELLEHQRKLERHRQEQELEKQHREQKLQQLKNKEKGKESAVASTEVKMKLQEFVLNKKKALAHRNLNHCISSDPRYWYGKTQHSSLDQSSPPQSGVSTSYNHPVLGMYDAKDDFPLRKTASEPNLKLRSRLKQKVAERRSSPLLRRKDGPVVTALKKRPLDVTDSACSSAPGSGPSSPNNSSGSVSAENGIAPAVPSIPAETSLAHRLVAREGSAAPLPLYTSPSLPNITLGLPATGPSAGTAGQQDTERLTLPALQQRLSLFPGTHLTPYLSTSPLERDGGAAHSPLLQHMVLLEQPPAQAPLVTGLGALPLHAQSLVGADRVSPSIHKLRQHRPLGRTQSAPLPQNAQALQHLVIQQQHQQFLEKHKQQFQQQQLQMNKIIPKPSEPARQPESHPEETEEELREHQALLDEPYLDRLPGQKEAHAQAGVQVKQEPIESDEEEAEPPREVEPGQRQPSEQELLFRQQALLLEQQRIHQLRNYQASMEAAGIPVSFGGHRPLSRAQSSPASATFPVSVQEPPTKPRFTTGLVYDTLMLKHQCTCGSSSSHPEHAGRIQSIWSRLQETGLRGKCECIRGRKATLEELQTVHSEAHTLLYGTNPLNRQKLDSKKLLGSLASVFVRLPCGGVGVDSDTIWNEVHSAGAARLAVGCVVELVFKVATGELKNGFAVVRPPGHHAEESTPMGFCYFNSVAVAAKLLQQRLSVSKILIVDWDVHHGNGTQQAFYSDPSVLYMSLLRYDDGNFFPGSGAPDEVGTGPGVGFNVNMAFTGGLDPPMGDAEYLAAFRTVVMPIASEFAPDVVLVSSGFDAVEGHPTPLGGYNLSARCFGYLTKQLMGLAGGRIVLALEGGHDLTAICDASEACVSALLGNELDPLPEKVLQQRPNANAVRSMEKVMEIHSKYWRCLQRTTSTAGRSLIEAQTCENEEAETVTAMASLSVGVKPAEKRPDEEPMEEEPPLDYKDDDDK
B2: HDAC4 dominant negative variant (H802K, H803L) with C-terminal Flag (expressed from pEAK-HDAC4 (H802K, H803L)) (protein)
chain: B1 chain with H802K, H803L, L863H
B3: HDAC4 dominant negative variants (H802K, H803L): HDAC4 variant with H802K and H803L mutations, amino acid sequence SEQ ID NO:4, expressed from plasmid (protein)
chain: MSSQSHPDGLSGRDQPVELLNPARVNHMPSTVDVATALPLQVAPSAVPMDLRLDHQFSLPVAEPALREQQLQQELLALKQKQQIQRQILIAEFQRQHEQLSRQHEAQLHEHIKQQQEMLAMKHQQELLEHQRKLERHRQEQELEKQHREQKLQQLKNKEKGKESAVASTEVKMKLQEFVLNKKKALAHRNLNHCISSDPRYWYGKTQHSSLDQSSPPQSGVSTSYNHPVLGMYDAKDDFPLRKTASEPNLKLRSRLKQKVAERRSSPLLRRKDGPVVTALKKRPLDVTDSACSSAPGSGPSSPNNSSGSVSAENGIAPAVPSIPAETSLAHRLVAREGSAAPLPLYTSPSLPNITLGLPATGPSAGTAGQQDTERLTLPALQQRLSLFPGTHLTPYLSTSPLERDGGAAHSPLLQHMVLLEQPPAQAPLVTGLGALPLHAQSLVGADRVSPSIHKLRQHRPLGRTQSAPLPQNAQALQHLVIQQQHQQFLEKHKQQFQQQQLQMNKIIPKPSEPARQPESHPEETEEELREHQALLDEPYLDRLPGQKEAHAQAGVQVKQEPIESDEEEAEPPREVEPGQRQPSEQELLFRQQALLLEQQRIHQLRNYQASMEAAGIPVSFGGHRPLSRAQSSPASATFPVSVQEPPTKPRFTTGLVYDTLMLKHQCTCGSSSSHPEHAGRIQSIWSRLQETGLRGKCECIRGRKATLEELQTVHSEAHTLLYGTNPLNRQKLDSKKLLGSLASVFVRLPCGGVGVDSDTIWNEVHSAGAARLAVGCVVELVFKVATGELKNGFAVVRPPGKLAEESTPMGFCYFNSVAVAAKLLQQRLSVSKILIVDWDVHHGNGTQQAFYSDPSVLYMSLHRYDDGNFFPGSGAPDEVGTGPGVGFNVNMAFTGGLDPPMGDAEYLAAFRTVVMPIASEFAPDVVLVSSGFDAVEGHPTPLGGYNLSARCFGYLTKQLMGLAGGRIVLALEGGHDLTAICDASEACVSALLGNELDPLPEKVLQQRPNANAVRSMEKVMEIHSKYWRCLQRTTSTAGRSLIEAQTCENEEAETVTAMASLSVGVKPAEKRPDEEPMEEEPPL
modifications: Dominant negative mutant (H802K, H803L) of human histone deacetylase-4 (HDAC4) gene

Experiments:
[1] = target: N-CoR (nuclear receptor corepressor), endogenous protein of the transfected cells, O75376
[2] = target: T1, HDAC3, endogenous protein of the transfected cells, O15379
T1 chain: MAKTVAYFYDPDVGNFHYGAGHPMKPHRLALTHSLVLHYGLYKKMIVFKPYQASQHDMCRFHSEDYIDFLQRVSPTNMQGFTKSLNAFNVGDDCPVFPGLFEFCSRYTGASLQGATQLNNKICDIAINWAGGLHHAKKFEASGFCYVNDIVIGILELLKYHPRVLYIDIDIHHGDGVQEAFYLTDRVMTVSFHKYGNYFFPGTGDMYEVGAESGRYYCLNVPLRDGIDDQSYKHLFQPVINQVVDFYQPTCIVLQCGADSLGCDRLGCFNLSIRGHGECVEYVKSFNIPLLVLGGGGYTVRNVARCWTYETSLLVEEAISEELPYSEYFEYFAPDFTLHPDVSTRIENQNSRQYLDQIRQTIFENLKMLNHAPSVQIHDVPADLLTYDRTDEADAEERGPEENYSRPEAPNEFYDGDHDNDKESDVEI

[3] = test system: IL-2 transcription (human IL-2 promoter); assay: IL-2 reporter gene assay in Jurkat cells; format: cell-based
Method: To 1 μg of the plasmid pGL3 IL2 Pro43, which has a human IL-2 promoter sequence (the −674 to +54 region in the vicinity of the transcription initiation site) upstream of the firefly luciferase gene, and 6 μg of pRL-TK (Promega), the plasmids for the expression of wild-type HDAC4 or each of HDAC4 dominant negative variants (H802K, H803L, H863L) prepared in Example 3 was mixed in various ratios (1, 3 and 10 μg), and 1×10^7 Jurkat cells (ATCC, TIB-152) were transformed by the electroporation method (BIO-RAD, Gene Pulser II, voltage 300 V, charge 975 μF, 400 μL).
After transformation, 2.5 mL of RPMI 1640 containing 10% FBS (MOREGATE) (10% FBS RPMI 1640) was added, and this mixture was dispensed to a 96-well white plate in a ratio of 50 μL/well. After cultivation under conditions of 37° C., 5% CO2 and saturated humidity for 10 hours, a liquid mixture of Phorbol 12-Myristate 13-Acetate (PMA, SIGMA), Ionomycin (SIGMA) and Anti-CD28 antibody (Pharmingen) in 10% FBS RPMI 1640 was added at 50 μL/well (the final concentrations were 50 ng/mL, 1 μg/mL and 75 ng/mL, respectively) to stimulate the Jurkat cells. After cultivation under conditions of 37° C., 5% CO2 and saturated humidity for 12 hours, luciferase activity in the cells was measured according to the manual of the Bright-Glo Luciferase Assay System (Promega) using a multi-label counter (1420 MULTILABEL COUNTER ARVO SX, WALLAC).
1×10^7 Jurkat cells (ATCC, TIB-152) were transformed with 10 μg of a plasmid for the expression of various HDACs or HDAC variants by the electroporation method (BIO-RAD, Gene Pulser II, voltage 300 V, charge 975 μF, 400 μL). […] After cultivation under conditions of 37° C., 5% CO2 and saturated humidity for 12 hours, luciferase activity in cells were measured according to the manual of the Bright-Glo Luciferase Assay System (Promega), and IL-2 transcriptional activity was measured using a multi-label counter (1420 MULTILABEL COUNTER ARVO SX, WALLAC).
(§1) A mixture of four kinds of HDAC4-targeted siRNA, i.e., siGENE HDAC4 SMARTpool (manufactured by Dharmacon Inc., marketed by B-Bridge international Inc., code number M-003497-00-05), or Non-specific Control Duplex IX (47% GC content) (manufactured by Dharmacon Inc., marketed by B-Bride international Inc., code number D-001206-09-20), and pGL3 IL2 Pro43 were transfected to Jurkat cells by the electroporation method using the same conditions as those mentioned above, and IL-2 transcriptional activity was measured. Likewise, siGENE HDAC4 SMARTpool or Non-specific Control Duplex IX, and pGL3-HSI-IE Pro were transfected to HEL cells, and GATA-1 transcriptional activity was measured. […]

[4] = test system: histone; assay: HDAC activity with [3H]-labeled acetylated histone as a substrate; format: biochemical, human; details: expressed in 293T cells, crudely purified; compared to wild-type HDAC4
Method: 7 μg of a plasmid for the expression of wild-type HDAC4 and HDAC4 dominant negative variants (H802K, H803L, H863L) was transfected to 293T cells by the calcium phosphate method; 48 hours later, whole cell lysate (cells were disrupted in 25 mM Tris, pH 7.4, 150 mM NaCl, 1 mM CaCl2, 1% Triton X-100, and cell debris was removed by centrifugation) was crudely purified using an anti-Flag antibody column (SIGMA, anti-Flag M2-agarose) (washed with TBS, then eluted with 0.1M Glysine-HCl, pH 3.5), and used for the measurement of HDAC activity. The reaction substrate used was a [^3H]-labeled acetylated histone prepared by cultivating Jurkat cells (2×10^8 cells) in 40 mL of an RPMI (SIGMA) medium containing 300 MBq [^3H] sodium acetate (NENTM Life Science Products, Inc.) for 2 hours, disrupting the cells in Lysis buffer, pH 6.5 (10 mM Tris-HCl, 50 mM Sodium Hydrogen sulfate, 1% Triton X-100, 10 mM MgCl2-6H2O, 8.6% Sucrose), washing the cells with Wash buffer (10 mM Tris-HCl, 13 mM EDTA), and then adding 0.4N H2SO4.

[5] = test system: GATA-1 transcription (human GATA-1 promoter); assay: GATA-1 reporter gene assay in HEL cells; format: cell-based; details: 10 μg expression plasmid
Method: Using 15 μg of pGL3-HSI-IE Pro and 10 μg of a plasmid for the expression of various HDACs or HDAC variants, 8.75×10^6 HEL cells (accession number JCRB0062, JCRB) were transformed by the electroporation method (BIO-RAD, Gene Pulser II, voltage 1750 V, charge 10 μF, 365 μL). After transformation, 2 mL of 10% FBS RPMI 1640 was added, and this mixture was dispensed to a 96-well white plate in a ratio of 50 μL/well. After cultivation under conditions of 37° C., 5% CO2 and saturated humidity for 3 hours, 10% FBS RPMI 1640 medium was added at 50 μL/well. After cultivation under conditions of 37° C., 5% CO2 and saturated humidity for 8 hours, luciferase activity in cells were measured according to the manual of the Bright-Glo Luciferase Assay System, and GATA-1 transcriptional activity was measured using a multi-label counter.
as §1, with “measured.” for “measured. Likewise, siGENE HDAC4 SMARTpool or Non-specific Control Duplex IX, and pGL3-HSI-IE Pro were transfected to HEL cells, and GATA-1 transcriptional activity was measured.”

Sequence of N-CoR (nuclear receptor corepressor), endogenous protein of the transfected cells, O75376 (O75376 whole entry): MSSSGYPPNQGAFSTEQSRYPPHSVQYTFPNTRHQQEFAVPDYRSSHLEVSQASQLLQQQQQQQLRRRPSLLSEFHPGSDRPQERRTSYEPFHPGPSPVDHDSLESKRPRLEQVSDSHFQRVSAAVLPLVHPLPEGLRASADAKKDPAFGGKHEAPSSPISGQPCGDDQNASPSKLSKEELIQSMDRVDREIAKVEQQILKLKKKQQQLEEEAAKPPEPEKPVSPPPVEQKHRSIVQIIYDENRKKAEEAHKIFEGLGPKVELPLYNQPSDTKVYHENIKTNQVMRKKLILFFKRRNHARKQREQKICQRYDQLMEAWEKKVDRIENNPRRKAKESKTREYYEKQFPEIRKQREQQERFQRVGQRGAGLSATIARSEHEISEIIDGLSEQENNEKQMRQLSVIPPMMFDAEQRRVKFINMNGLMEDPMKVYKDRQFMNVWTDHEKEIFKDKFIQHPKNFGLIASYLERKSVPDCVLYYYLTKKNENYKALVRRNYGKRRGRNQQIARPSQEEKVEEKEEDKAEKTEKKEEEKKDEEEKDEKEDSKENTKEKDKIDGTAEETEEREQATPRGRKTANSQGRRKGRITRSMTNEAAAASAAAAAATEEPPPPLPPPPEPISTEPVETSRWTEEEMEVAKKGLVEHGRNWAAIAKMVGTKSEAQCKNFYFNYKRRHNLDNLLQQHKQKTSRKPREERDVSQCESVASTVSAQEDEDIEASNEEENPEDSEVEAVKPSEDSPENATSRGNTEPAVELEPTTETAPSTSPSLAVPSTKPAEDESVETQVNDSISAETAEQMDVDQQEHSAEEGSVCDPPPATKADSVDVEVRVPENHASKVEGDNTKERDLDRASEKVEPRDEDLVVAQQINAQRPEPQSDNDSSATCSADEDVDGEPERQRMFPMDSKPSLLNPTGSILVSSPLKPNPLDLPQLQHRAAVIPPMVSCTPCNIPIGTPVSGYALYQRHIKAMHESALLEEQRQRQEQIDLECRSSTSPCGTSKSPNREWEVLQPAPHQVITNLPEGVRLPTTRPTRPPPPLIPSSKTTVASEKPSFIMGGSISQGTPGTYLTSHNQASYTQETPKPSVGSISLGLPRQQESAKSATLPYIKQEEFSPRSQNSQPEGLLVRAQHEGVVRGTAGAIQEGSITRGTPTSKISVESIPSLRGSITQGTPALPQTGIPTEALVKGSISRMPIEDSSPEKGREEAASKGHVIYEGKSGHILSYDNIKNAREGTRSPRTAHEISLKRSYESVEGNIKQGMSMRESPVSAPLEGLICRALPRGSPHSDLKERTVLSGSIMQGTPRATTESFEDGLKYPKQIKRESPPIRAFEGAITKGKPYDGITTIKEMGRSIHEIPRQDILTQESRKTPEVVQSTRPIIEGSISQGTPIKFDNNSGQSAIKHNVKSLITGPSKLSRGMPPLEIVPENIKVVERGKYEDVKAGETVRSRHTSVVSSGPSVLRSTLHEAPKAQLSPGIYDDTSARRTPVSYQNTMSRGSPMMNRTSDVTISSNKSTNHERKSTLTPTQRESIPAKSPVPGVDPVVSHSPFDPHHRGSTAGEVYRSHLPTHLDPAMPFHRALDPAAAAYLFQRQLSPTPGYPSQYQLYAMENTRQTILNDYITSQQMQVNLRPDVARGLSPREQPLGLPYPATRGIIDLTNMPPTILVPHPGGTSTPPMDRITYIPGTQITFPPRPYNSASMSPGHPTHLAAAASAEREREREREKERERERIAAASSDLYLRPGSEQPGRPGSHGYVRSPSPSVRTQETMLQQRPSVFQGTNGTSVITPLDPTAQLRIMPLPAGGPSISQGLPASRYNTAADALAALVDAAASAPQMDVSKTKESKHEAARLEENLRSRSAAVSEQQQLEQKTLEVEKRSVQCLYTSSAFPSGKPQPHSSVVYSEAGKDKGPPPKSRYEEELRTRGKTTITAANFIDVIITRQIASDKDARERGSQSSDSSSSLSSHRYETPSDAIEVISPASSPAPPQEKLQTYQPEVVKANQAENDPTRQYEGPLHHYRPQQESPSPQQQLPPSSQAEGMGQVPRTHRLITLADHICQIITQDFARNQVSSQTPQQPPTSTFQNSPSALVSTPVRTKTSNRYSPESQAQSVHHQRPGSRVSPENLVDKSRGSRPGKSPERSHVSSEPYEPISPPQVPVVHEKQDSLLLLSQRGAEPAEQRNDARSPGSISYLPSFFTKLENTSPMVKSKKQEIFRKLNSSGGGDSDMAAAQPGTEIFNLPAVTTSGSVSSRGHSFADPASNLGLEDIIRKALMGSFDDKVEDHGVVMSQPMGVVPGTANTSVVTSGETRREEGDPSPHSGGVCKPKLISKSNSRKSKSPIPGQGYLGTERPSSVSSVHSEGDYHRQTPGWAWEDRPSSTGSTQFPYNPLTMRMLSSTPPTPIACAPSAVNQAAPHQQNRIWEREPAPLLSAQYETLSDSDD

Row | Molecule | HDAC activity with [3H]-labeled acetylated histone as a substrate [1] | HDAC activity with [3H]-labeled acetylated histone as a substrate [2] | IL-2 transcriptional activity (luciferase) ([3]; Jurkat cells stimulated with PMA, Ionomycin, Anti-CD28 antibody, expression plasmid 1, 3 and 10 μg) | IL-2 transcriptional activity (luciferase) ([3]; Jurkat cells, 10 μg expression plasmid, compared with HDAC1 and HDAC3 variants) | HDAC activity with histone as a substrate [4] | GATA-1 transcriptional activity (luciferase) [5]
1 | B1 | had decreased HDAC activity compared to wild-type HDAC4 | had decreased HDAC activity compared to wild-type HDAC4 |  |  |  | 
2 | B2 | had decreased HDAC activity compared to wild-type HDAC4 | had decreased HDAC activity compared to wild-type HDAC4 |  |  |  | 
3 | B3 |  |  | IL-2 transcription suppression depending on the expression level | IL-2 transcription suppression was observed | decreased HDAC activity compared to wild-type HDAC4 | GATA-1 transcription suppression was not observed
